The target in this assay is PeB^GF-Lys, double substituted variant ([change], [change]) of PeB-Lys (mouse). The assay can be described thus: SPR. A general note: In SPR one partner is held on a chip, and binding of the other changes the refractive index at the surface.

Consider “hemagglutinin (HA) of influenza A/California/7/2009 H1N1, in the split vaccine Pandemrix (natural protein)”, for which the fold amount of hemagglutinin bound compared to PeB is 20 fold.

These data come from PMC4944999 (PLoS ONE, 2016).
